# Test results published in publication PMC4175270.
# Legend:
# [1] = biological target: His6-MobC1-129 (plasmid RA3 (IncU), isolated from Aeromonas hydrophila); assay: SEC-MALS; gel filtration on Superdex 200 10/300 GL with UV, MALS and refractometer in line; 10 mM Tris pH 8.0, 150 mM NaCl; 0.5 ml of His6-MobC at 0.24 mg ml^-1 or His6-MobC1-129 at 0.04 mg ml^-1; no higher oligomers of MobC detected
# [2] = biological target: His6-MobC1-129 (plasmid RA3 (IncU), isolated from Aeromonas hydrophila); assay: cross-linking; His-tagged MobC derivatives (0.1 mg ml^-1) with 0.001%, 0.005% and 0.01% glutaraldehyde; 20% SDS-PAGE, Western blot with anti-His tag antibodies
# [3] = biological target: His6-MobC (WT MobC of plasmid RA3) (plasmid RA3 (IncU), isolated from Aeromonas hydrophila); assay: SEC-MALS; gel filtration on Superdex 200 10/300 GL with UV, MALS and refractometer in line; 10 mM Tris pH 8.0, 150 mM NaCl; 0.5 ml of His6-MobC at 0.24 mg ml^-1 or His6-MobC1-129 at 0.04 mg ml^-1; no higher oligomers of MobC detected
Substance,stoichiometry N [1],stoichiometry N [2],stoichiometry N [3]
His6-MobC1-129 (domain or fragment),2,2,
His6-MobC (WT MobC of plasmid RA3) (natural protein),,,2
